# Laboratory results from the array DNA melting data of Ke et al..
# Experiment: melting temperature; melt of duplexes
# Conditions: sodium 0.0675 M; strand 1 µM
row,Substance,Tm
1,CGACGTGCCTAATGTGCTG+CAGCACATCCAGCACGTCG ((((((((...((((((((+))))))))...)))))))),48.7 °C
2,CGACGTGCATAATGTGCTG+CAGCACATCGTGCACGTCG (((((((((..((((((((+))))))))..))))))))),47.6 °C
3,CGACGTGCGTCATGTGCTG+CAGCACATTCTGCACGTCG ((((((((...((((((((+))))))))...)))))))),49.2 °C
4,CGACGTGCAGCATGTGCTG+CAGCACATGTTGCACGTCG (((((((((.(((((((((+))))))))).))))))))),58.7 °C
5,CGACGTGCTCTATGTGCTG+CAGCACATCAAGCACGTCG (((((((((..((((((((+))))))))..))))))))),51.1 °C
6,CGACGTGCAAGATGTGCTG+CAGCACATGCAGCACGTCG ((((((((...((((((((+))))))))...)))))))),52.3 °C
7,CGACGTGCAGCATGTGCTG+CAGCACATACTGCACGTCG ((((((((((.((((((((+)))))))).)))))))))),55.7 °C
8,CGACGTGCGACATGTGCTG+CAGCACATCTAGCACGTCG ((((((((.(.((((((((+)))))))).).)))))))),51.5 °C
9,CGACGTGCTGCATGTGCTG+CAGCACATGCGGCACGTCG ((((((((.((((((((((+)))))))))).)))))))),63 °C
10,CGACGTGCCCAATGTGCTG+CAGCACATGTGGCACGTCG (((((((((..((((((((+))))))))..))))))))),56.2 °C
11,CGACGTGCCGTATGTGCTG+CAGCACATTGGGCACGTCG (((((((((..((((((((+))))))))..))))))))),54.7 °C
12,CGACGTGCGGGATGTGCTG+CAGCACATCATGCACGTCG ((((((((..(((((((((+)))))))))..)))))))),57 °C
13,CGACGTGCCTTATGTGCTG+CAGCACATCGCGCACGTCG ((((((((...((((((((+))))))))...)))))))),47.2 °C
14,CGACGTGCTTTATGTGCTG+CAGCACATCCGGCACGTCG ((((((((...((((((((+))))))))...)))))))),48.2 °C
15,CGACGTGCCTTATGTGCTG+CAGCACATGCTGCACGTCG ((((((((...((((((((+))))))))...)))))))),45.1 °C
16,CGACGTGCCAGATGTGCTG+CAGCACATACCGCACGTCG ((((((((...((((((((+))))))))...)))))))),47.6 °C
17,CGACGTGCAATATGTGCTG+CAGCACATCTTGCACGTCG ((((((((((.((((((((+)))))))).)))))))))),54.8 °C
18,CGACGTGCCGTATGTGCTG+CAGCACATACGGCACGTCG (((((((((((((((((((+))))))))))))))))))),66.2 °C
19,CGACGTGCGCCATGTGCTG+CAGCACATTATGCACGTCG ((((((((...((((((((+))))))))...)))))))),47.6 °C
20,CGACGTGCTAAATGTGCTG+CAGCACATCCTGCACGTCG ((((((((...((((((((+))))))))...)))))))),49 °C
21,CGACGTGCTGTATGTGCTG+CAGCACATACCGCACGTCG ((((((((.((((((((((+)))))))))).)))))))),55.2 °C
22,CGACGTGCCGGATGTGCTG+CAGCACATCCAGCACGTCG ((((((((.((((((((((+)))))))))).)))))))),59 °C
23,CGACGTGCCTGATGTGCTG+CAGCACATGTGGCACGTCG (((((((((..((((((((+))))))))..))))))))),54.9 °C
24,CGACGTGCTGCATGTGCTG+CAGCACATGAGGCACGTCG ((((((((..(((((((((+)))))))))..)))))))),56.8 °C
25,CGACGTGCTGCATGTGCTG+CAGCACATCTAGCACGTCG (((((((((..((((((((+))))))))..))))))))),52.4 °C
26,CGACGTGCGTGATGTGCTG+CAGCACATAGGGCACGTCG ((((((((...((((((((+))))))))...)))))))),50.6 °C

row,Substance,Tm
1,CGACGTGCTAGATGTGCTG+CAGCACATTGTGCACGTCG ((((((((...((((((((+))))))))...)))))))),48.5 °C
2,CGACGTGCGCGATGTGCTG+CAGCACATGCTGCACGTCG ((((((((...((((((((+))))))))...)))))))),52.9 °C
3,CGACGTGCTTAATGTGCTG+CAGCACATTGGGCACGTCG ((((((((..(((((((((+)))))))))..)))))))),53.5 °C
4,CGACGTGCTGAATGTGCTG+CAGCACATCTGGCACGTCG ((((((((...((((((((+))))))))...)))))))),51.7 °C
5,CGACGTGCATGATGTGCTG+CAGCACATAGGGCACGTCG ((((((((...((((((((+))))))))...)))))))),50.1 °C
6,CGACGTGCTGGATGTGCTG+CAGCACATCCGGCACGTCG ((((((((.((((((((((+)))))))))).)))))))),62.9 °C
7,CGACGTGCAGAATGTGCTG+CAGCACATTACGCACGTCG ((((((((..(((((((((+)))))))))..)))))))),52.7 °C
8,CGACGTGCGTCATGTGCTG+CAGCACATTGCGCACGTCG (((((((((..((((((((+))))))))..))))))))),54.7 °C
9,CGACGTGCCCGATGTGCTG+CAGCACATCGTGCACGTCG ((((((((.((((((((((+)))))))))).)))))))),57.1 °C
10,CGACGTGCCCTATGTGCTG+CAGCACATTATGCACGTCG ((((((((...((((((((+))))))))...)))))))),48 °C
11,CGACGTGCGTGATGTGCTG+CAGCACATGGTGCACGTCG ((((((((...((((((((+))))))))...)))))))),47.8 °C
12,CGACGTGCGATATGTGCTG+CAGCACATACTGCACGTCG ((((((((..(((((((((+)))))))))..)))))))),52.6 °C
13,CGACGTGCTATATGTGCTG+CAGCACATCCCGCACGTCG ((((((((...((((((((+))))))))...)))))))),47.2 °C
14,CGACGTGCAGTATGTGCTG+CAGCACATCAAGCACGTCG ((((((((...((((((((+))))))))...)))))))),49.6 °C
15,CGACGTGCACTATGTGCTG+CAGCACATTATGCACGTCG (((((((((..((((((((+))))))))..))))))))),46.2 °C
16,CGACGTGCGTCATGTGCTG+CAGCACATCCGGCACGTCG ((((((((...((((((((+))))))))...)))))))),48.7 °C
17,CGACGTGCCACATGTGCTG+CAGCACATGTGGCACGTCG (((((((((((((((((((+))))))))))))))))))),66.4 °C
18,CGACGTGCAAAATGTGCTG+CAGCACATCTTGCACGTCG ((((((((((.((((((((+)))))))).)))))))))),54 °C
19,CGACGTGCTTTATGTGCTG+CAGCACATGCCGCACGTCG ((((((((...((((((((+))))))))...)))))))),46.7 °C
20,CGACGTGCGCTATGTGCTG+CAGCACATCGCGCACGTCG ((((((((((.((((((((+)))))))).)))))))))),60.1 °C
21,CGACGTGCTAAATGTGCTG+CAGCACATCGTGCACGTCG ((((((((...((((((((+))))))))...)))))))),44.7 °C
22,CGACGTGCCTGATGTGCTG+CAGCACATCACGCACGTCG ((((((((.((((((((((+)))))))))).)))))))),55.5 °C
23,CGACGTGCAATATGTGCTG+CAGCACATGCTGCACGTCG (((((((((..((((((((+))))))))..))))))))),50.7 °C
24,CGACGTGCACAATGTGCTG+CAGCACATTTGGCACGTCG ((((((((..(((((((((+)))))))))..)))))))),51.2 °C
25,CGACGTGCCTAATGTGCTG+CAGCACATATCGCACGTCG ((((((((...((((((((+))))))))...)))))))),47 °C
26,CGACGTGCCGCATGTGCTG+CAGCACATGAAGCACGTCG ((((((((..(((((((((+)))))))))..)))))))),53.8 °C
